± gives the standard deviation of the averaged measurements.
System: ATP
Test: switch fluorescence ratio, 500 uM ATP over buffer (Cy3 cluster intensity, sum of 5 cycles each) (fold (ratio)); higher = stronger signal-on switching upon ATP binding; sequences stand for … in TCGTCGGCAGCGTCAGATGTGTATAAGAGACAGTTTTTTTTTTTTTTTTTTTTTTTTT…TC
Details: aptamer strand: ATP DNA aptamer (quencher-CACCTGGGGGAGTATTGCGGAGGAAGG + anchor), 100 nM annealed; ATP concentration: 500 uM
Summary of the method: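 Cy3-labelled switching-strand clusters on a modified Illumina MiSeq flow-cell were annealed to 100 nM quencher-labelled ATP aptamer, imaged in selection buffer, then imaged after 15 min with 500 uM ATP at 22 °C. Five buffer/ATP cycles ran, with NaOH stripping and re-annealing between them. The fluorescence ratio is summed target-cycle over summed buffer-cycle Cy3 intensity per cluster, averaged per switch-domain sequence. Clusters outside 100-1000 RFU were excluded.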
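Note: ATP exposure 15 min at 22 °C before imaging.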

Row | Sequence | switch fluorescence ratio
1 | GCGATTGGAG | 1.01 ± 0.034
2 | AATAGAAAAT | 0.97 ± 0.061
3 | CACGGCAGGG | 1.01 ± 0.012
4 | TTGGGAAGGG | 1 ± 0.032
5 | GCAAGAAAAA | 1.023 ± 0.0056
6 | CGCGGGAATG | 1.05 ± 0.033
7 | TTAGGGTGCA | 1.01 ± 0.025
8 | AAAAAAGGTT | 1.07 ± 0.14
9 | GCAGGTATCA | 1.018 ± 0.007
10 | TCTCGGGGGG | 1.02 ± 0.065
11 | GTTGGTTGTT | 0.985 ± 0.023
12 | GCGGGAGATG | 1.04 ± 0.018
13 | ATCCTCGTAA | 2.44 ± 0.32
14 | TTTACTCGGC | 1.08 ± 0.16
15 | AATTTTGGTT | 0.99 ± 0.017
16 | TATTTGAGCA | 0.995 ± 0.026
17 | AGGAACTGCA | 1.07 ± 0.029
18 | ATAACGGAGT | 0.9902 ± 0.0087
19 | AGGGTCTGGG | 0.993 ± 0.034
20 | TAATGTAATG | 0.999 ± 0.031
21 | GGTTGATACG | 0.959 ± 0.026
22 | CTAAGGGATT | 1.01 ± 0.058
23 | CTATGTGGGT | 1.02 ± 0.048

Row | Sequence | switch fluorescence ratio
24 | TTTTTTCACT | 1.17 ± 0.34
25 | GAGGATGGGA | 0.98 ± 0.022
26 | ACAGACTTTG | 1.01 ± 0.062
27 | GATGGGTACG | 1.02 ± 0.042
28 | TTGGAATAGA | 0.999 ± 0.05
29 | AAAGGAGTTT | 1.01 ± 0.072
30 | CAAGTGGCAT | 1.017 ± 0.0079
31 | TAGCAAGTGG | 0.998 ± 0.043
32 | TTTCATGTAT | 1.01 ± 0.012
33 | ACTAATATCG | 1.04 ± 0.036
34 | TAATTAAATA | 1.04 ± 0.038
35 | AAGGCGTCGG | 0.993 ± 0.026
36 | CAGTTCCCGG | 1.02 ± 0.063
37 | GGCGGTACGG | 1.01 ± 0.0066
38 | ACATGGGTGG | 0.962 ± 0.051
39 | TTTTAATACT | 1.04 ± 0.066
40 | TCAAAATATT | 1.006 ± 0.0065
41 | AAGGGCGCTC | 0.975 ± 0.032
42 | AAGGTTGCGG | 1 ± 0.037
43 | GGGAGCCCTC | 0.9958 ± 0.0055
44 | GGGGGACACT | 1.01 ± 0.022
45 | CTCCATATGT | 1.039 ± 0.0016
46 | AAGGGTGGTC | 0.957 ± 0.012

Row | Sequence | switch fluorescence ratio
47 | TTTTTGGTTT | 1.02 ± 0.083
48 | TTTTGTGGAA | 0.998 ± 0.027
49 | TCGAGGGGAC | 1.67 ± 1.4
50 | ATGTGTTACC | 1.01 ± 0.021
51 | TGTTTTGTAG | 1 ± 0.015
52 | CATCGTGCTG | 0.978 ± 0.052
53 | TTAGGTGGAG | 0.977 ± 0.031
54 | GATGCGGTTA | 0.988 ± 0.031
55 | CCTTTGGCAG | 1.22 ± 0.06
56 | CTATTCCGAG | 1.16 ± 0.066
57 | AAGGTTCGAT | 0.984 ± 0.049
58 | GGGGAGTCTT | 0.972 ± 0.057
59 | CGTGCATATC | 2.51 ± 0.17
60 | AGTGTGTGTG | 1.013 ± 0.0024
61 | AGCGGGGAGG | 1.03 ± 0.035
62 | GGCTTAGGTG | 1.26 ± 0.06
63 | TGTGATTGGC | 1.03 ± 0.041
64 | CCTCTGGGGG | 1.32 ± 0.19
65 | GCCATGACGG | 0.988 ± 0.027
66 | GAGCGCGAGG | 0.99 ± 0.037
67 | GTGGTGGCGG | 1.02 ± 0.017
68 | GGAAGTGGGC | 1.0283 ± 0.00079
69 | CAGTTAAGTA | 0.973 ± 0.028

Row | Sequence | switch fluorescence ratio
70 | GAGTTAGTTG | 0.987 ± 0.093
71 | TTTACGTCCA | 1.1 ± 0.047
72 | CATTTGAAGA | 1.01 ± 0.019
73 | TTTGTTGTCT | 0.995 ± 0.011
74 | GTTTGTGGGA | 0.974 ± 0.019
75 | TTTGAGTGAG | 0.9892 ± 0.0098
76 | AGGGGGAGTA | 0.993 ± 0.027
77 | GGCGTGTCAG | 0.951 ± 0.039
78 | ATAAGGGAGA | 1 ± 0.037
79 | GAGGTGAAGA | 0.979 ± 0.046
80 | TCAAAGGGTC | 1 ± 0.088
81 | ATGGGGGAGC | 0.981 ± 0.011
82 | TTTATGCTCC | 1.086 ± 0.0031
83 | TTAGGATTTT | 1.01 ± 0.011
84 | TGAGTCAAGC | 1.01 ± 0.076
85 | AACATGGGTT | 1.01 ± 0.031
86 | TGTTAGGGGT | 1 ± 0.075
87 | AAAGATTAAA | 0.9918 ± 0.0056
88 | AGGGAGCCCG | 1.01 ± 0.036
89 | GTTTGACACT | 0.99 ± 0.042
90 | GGATTGGGGG | 0.995 ± 0.02
91 | AGGTAGCATA | 1.05 ± 0.03
92 | AATATTAGGC | 1.03 ± 0.03

Row | Sequence | switch fluorescence ratio
93 | CTAGTTGGTA | 0.994 ± 0.027
94 | ATCTTCTAGT | 0.953 ± 0.041
95 | TTGTCCTTTG | 0.993 ± 0.013
96 | GAAGTAATAG | 4.39 ± 0.18
97 | TAGGGATTGG | 1.01 ± 0.039
98 | TATTTGTGTG | 0.998 ± 0.029
99 | TTCGGATGAG | 0.977 ± 0.041
100 | GTGTGCGGTG | 0.982 ± 0.015
101 | GGGGTACTAG | 0.9981 ± 0.0071
102 | CGTGGGACTC | 1.1401 ± 0.00046
103 | CATATCTAAG | 1.002 ± 0.0019
104 | AGGCAGTTGG | 0.966 ± 0.019
105 | TATTAAGTGG | 1.05 ± 0.071
106 | TTTGGCTTAC | 1.55 ± 0.72
107 | CCAGGGGGGT | 1.99 ± 1.4
108 | AGGCCCGAGC | 0.98 ± 0.073
109 | GATAAGTCGG | 1.009 ± 0.01
110 | AACAGGGTTT | 1.01 ± 0.075
111 | AGATTCGGGA | 0.967 ± 0.038
112 | GCGGGGGCGT | 1 ± 0.03
113 | TGATTGTGTA | 0.987 ± 0.048
114 | TTTCGGGCAT | 1.19 ± 0.31
115 | TTTATGGAAG | 0.988 ± 0.013

Row | Sequence | switch fluorescence ratio
116 | AGTGCGTTTG | 1 ± 0.038
117 | CATGTTGGCT | 1.012 ± 0.0039
118 | TACGTTTGCG | 1.01 ± 0.014
119 | GGTTAGAACG | 1.02 ± 0.06
120 | AGTTTTGGTA | 1.02 ± 0.064
121 | GGGTGGTAGA | 1.01 ± 0.04
122 | TTCGGGGGT | 0.983 ± 0.024
123 | AGGGGATGGC | 0.946 ± 0.017
124 | TTAAAGAAAT | 1.05 ± 0.091
125 | CTTGTTTCTC | 0.971 ± 0.028
126 | TTTAGAACTC | 1.19 ± 0.3
127 | TATGTTAGTG | 1.01 ± 0.042
128 | CCGTTTTAGC | 1.12 ± 0.12
129 | ATGAAAATTT | 1.05 ± 0.017
130 | TTTTGATACG | 0.996 ± 0.041
131 | CCAAAGGGCC | 1.01 ± 0.071
132 | ACTGCCGTAT | 1.01 ± 0.036
133 | TTGTTTTCCG | 1.02 ± 0.014
134 | AAAGATGATG | 1.0025 ± 0.00068
135 | TTGAAACAGA | 0.985 ± 0.038
136 | TATACGTTTT | 1.12 ± 0.14
137 | TTTGCCGGAC | 1.04 ± 0.062
138 | TGCCCTATTT | 0.986 ± 0.025

Row | Sequence | switch fluorescence ratio
139 | CGTAAGGGTT | 1.008 ± 0.0063
140 | TGGGTTGTGT | 0.988 ± 0.028
141 | GGGGGAACCT | 1.0549 ± 0.00095
142 | GGGGACGGGG | 1 ± 0.03
143 | TTTATTGTTA | 1.05 ± 0.068
144 | AAAGGTTGGG | 0.992 ± 0.044
145 | TGCGGCGGGT | 1.04 ± 0.012
146 | TTTGCCTTTG | 0.9991 ± 0.0076
147 | GCTTGGAAGC | 0.9909 ± 0.0089
148 | TCACTTTGCG | 0.984 ± 0.032
149 | TTTTGAGCGG | 1.04 ± 0.015
150 | TAAAGAATTT | 0.98 ± 0.032
151 | CATAGGGGCG | 0.984 ± 0.023
152 | GGCCTATCAC | 1.016 ± 0.0078
153 | CTAAGGCGTT | 0.999 ± 0.013
154 | ATGATTCGTG | 0.972 ± 0.028
155 | TTCGGGAACT | 1 ± 0.038
156 | CCATAGGATA | 1.0259 ± 0.00058
157 | TAAAAAGGTA | 1.02 ± 0.028

— the supplement of paper PMC10126150
